Reference: patent US12662540B2, “Compositions and methods for inhibition of MICA/B shedding” (DANA-FARBER CANCER INSTITUTE, INC., priority 2017, dated 2026)
Entries after “also recorded” stand apart in the source; their conditions may differ.

Experiments:
[1] = test system: human NK cells; assay: Intracellular interferon-γ production by NK cells co-cultured with tumor cells; assay type: cell-based; details: co-culture with tumor cells, antibody 10 μg/ml
Procedure: NK cells were co-cultured for 6 hours at a ratio of 5:1 with tumor cells in the presence of Brefeldin-A (Biolegend). After the incubation time, Fc receptors were blocked, cells stained with NK cell markers, stained further with a dead cell marker (Zombie Yellow, Biolegend), and subsequently processed for intracellular interferon-γ labeling. Briefly, cells were fixed with BD Cytofix/Cytoperm™ Fixation and Permeabilization Solution (BD Pharmingen), permeabilized with Permeabilization Wash Buffer (Biolegend), and stained with APC-conjugated anti-human interferon-γ (4S.B3, Biolegend) or appropriate isotype control. Fluorescence spectra were acquired using a LSR Fortessa flow cytometer and analyzed by FlowJo.

[2] = test system: human NK cells; assay: NK cell RNA-sequencing after co-culture with antibody-pretreated A375 cells; assay type: cell-based; details: 6 hours co-culture; A375 pretreated 48 hours
Procedure: Human NK cells were isolated from a healthy volunteer to ˜99% purity. These cells were pre-activated with 1,000 U/ml IL-2 overnight. A375 tumor cells were pre-treated with 10 μg/ml of 7C6-hIgG1 or isotype control (BioXcell BE0096) antibodies for 48 hours. Cells were then washed and NK cells were co-cultured with tumor cells for 6 hours in a 5:1 ratio. Subsequently, human NK cells were re-sorted and total RNA isolated with genomic DNA digestion with QIAGEN RNeasy RNA isolation kit (74134). RNA sequencing libraries were generated using the Kapa mRNAseq kit (KapaBiosystems). The libraries were analyzed by Next-Generation Sequencing and pooled barcoded samples were subjected to VIPER analysis. RNA levels were compared for NK cells from co-cultures treated with 7C6-hIgG1 versus isotype control antibodies. A cut-off of at least 1 Log2 fold change was applied to select genes that were differentially expressed. Gene set enrichment analysis (GSEA) was also performed in order to identify relevant molecular pathways for differentially expressed mRNAs.

[3] = test system: human macrophages; assay: Inhibition of MICA shedding by macrophages; assay type: cell-based; details: acetylated-LDL, 24 hours, antibody 10 μg/ml
Procedure: PBMC were isolated from a leukapheresis collar obtained from a healthy donor, and monocytes were isolated by adherence to tissue culture plates (2 hour incubation). Non-adherent cells were then washed away and M-CSF was added at 100 ng/ml in RPMI-1640 media supplemented with 10% FBS, Glutamax and Penicillin/Streptomycin. Visual inspection of cell morphology on day 5 confirmed that monocytes had differentiated into macrophages. Macrophages were treated for 24 hours in 96-well plates with different concentrations of acetylated LDL as well as MICA antibodies (10 μg/ml). Shed MICA in supernatants was examined by ELISA (Abcam) and cell surface density of MICA/B was quantified by flow cytometry.

[4] = test system: A375 cells; assay: NK cell cytotoxicity assay (51Cr release), human NK cells against human tumor cells; assay type: cell-based
Procedure: Human NK cells were isolated from fresh leukapheresis blood collars that had been generated by Brigham & Women's Hospital, Boston, from healthy donors. Samples were diluted with an equal volume of PBS and blood mononuclear cells were isolated by Ficoll density gradient centrifugation. Cells were washed with PBS, and NK cells were isolated by negative selection using the Human NK Cell Isolation Kit (130-092-657, Miltenyi Biotech) using an autoMACS system (Miltenyi Biotech). Enriched NK cells (purity of 50-90%) were then incubated with anti-CD56 (PE or APC conjugated) and anti-CD3 (FITC or Pacific Blue conjugated) (Biolegend) and sorted using a BD FACS Aria. Following sorting, NK cell purity was ˜99%. These cells were cultured for twelve hours in complete RPMI media supplemented with 300-1000 U/ml of recombinant human IL-2 (BD Pharmingen).
Target cells were labeled for 1 hour with 100 μCi of ^51[Cr] per 2×10^6 cells in 0.2 ml of media. Subsequently, cells were washed and plated in V-bottom 96-wells plates (5,000 target cells per well). To determine the experimental release, NK cells were added in an equal volume, but at different ratios. To determine maximum and spontaneous release, target cells were mixed with an equal volume of 2% Triton-X100 in PBS or an equal volume of media, respectively. Antibodies were added at a final concentration of 10 μg/ml.
For experiments shown in FIGS. 1E, 10, and 13E antibodies were added at the time of the killing assay. For FIGS. 3A-B, antibodies were added to tumor cells 48 hours prior to labelling with ^51[Cr] to inhibit MICAS shedding. The isotype control antibody for assays with human NK cells was recombinant human IgG1 Fc (BE0096, BioXcell). […] At the end of the incubation period, plates were centrifuged (2000 rpm, 5 minutes), part of the supernatant was collected, mixed with scintillation fluid, and radioactivity was quantified using a MicroBeta2 reader (Perkin Elmer). Specific killing was calculated using the following formula: 100×(Experimental release−Spontaneous release)/(Maximum release−Spontaneous release).

[5] = test system: Kupffer cells; assay: Analysis of liver macrophages in humanized metastasis model; assay type: in vivo, NSG mice; details: three weeks after tumor cell inoculation
Procedure: NSG mice were injected i.v with A2058 cells and treated with 7C6-hgG1 or isotype control antibodies as described above. Three weeks following tumor cell inoculation, mice were euthanized and livers were perfused with PBS through the portal vein. Livers were mechanically dissociated and cell suspensions passed through a 70 □ filter. […] Antibodies used for subsequent labeling were APC-CD45.2, APC-CD45.1, BV785-CD11b, BV421-F4/80, BV650-CD80, PE-CD86, FITC-Ly6C, PE-Cy7-Ly6G, PERCP-Cy5.5-CD16/CD32 and Zombie NIR. Cells were acquired in a Sony Spectral Analyzer and data were analyzed by FlowJo.

[6] = test system: A2058 melanoma cells; assay: A2058 metastasis model (NSG mice, human NK cells); assay type: in vivo
Procedure: Human NK cell reconstitution of NSG mice was done similar to a previous report (26). Briefly, human NK cells were obtained from fresh blood collars, as described above. Cells were treated overnight with 300 U/ml of recombinant human IL-2 (BD Pharmingen), and 1.5×10^6NK cells were injected intravenously into NSG mice. NK cell survival was supported by intraperitoneal injection of 75,000 U of IL-2 (Peprotech) every other day. Human NK cells survived in NSG mice for approximately one week under these conditions (data not shown) and therefore the last IL-2 injection was given 7 days following NK cell transfer. Furthermore, one day after NK cell inoculation and the first injection of IL-2, NSG mice were also injected intravenously with 1×10^6 A2058 melanoma cells. Two days later, mice were treated with 200 μg 7C6-hIgG1 or isotype control (BioXcell) and again once per week. Mice were bled at multiple time points to measure shed MICA and other serum markers. Euthanasia was performed on day 30 following tumor cell inoculation, lungs were perfused with Indian ink (as described above), fixed in Fekete's solution, and the number of lung metastases was counted. Lungs processed for histology were not perfused but fixed in formalin. Livers were also collected, fixed in formalin solution and the number of metastases was counted, or processed for histology. Following removal of these tissues, mice were fixed in Bouin fixative and processed for necropsy by the Rodent Histopathology Core (Dana-Farber/Harvard Cancer Center). The analysis was performed by a pathologist unaware of the different experimental groups.
Macrophages were depleted by intravenous injection of 0.2 ml clodronate liposomes (Encapsula NanoSciences LLC). In the humanized and B16F10-MICA metastasis models, 0.2 ml of clodronate liposomes or control liposomes were injected i.v. (on the same day of tumor cell inoculation and then once weekly).

B1: 7C6-hIgG1: recombinant 7C6 with Fc segment replaced by human IgG1 (antibody, V domains shown)
VH: QIQLVQSGPELKKPGETVKVSCKASGYMFTNYAMNWVKQAPEKGLKWMGWINTHTGDPTYADDFKGRIAFSLETSASTAYLQINNLKNEDTATYFCVRTYGNYAMDYWGQGTSVTVSS
VL: DIQMTQTTSSLSASLGDRVTISCSASQDISNYLNWYQQKPDGTVKLLIYDTSILHLGVPSRFSGSGSGTDYSLTISNLEPEDIATYYCQQYSKFPRTFGGGTTLEIK
IFNγ (cytokine) production by human NK cells [1]: produced higher levels of IFNγ
gene expression by human NK cells [2]: upregulated genes associated with NK cell activation and effector functions
MICA and MICB surface levels on macrophages [3]: increased MICA and MICB surface levels on macrophages
MICA shedding by macrophages [3]: inhibited MICA shedding
NK cell-mediated cytotoxicity against antibody-pretreated A375 cells ([4]; A375 treated 48 hours, 4 hour co-culture with human NK cells): triggered stronger NK cell-mediated cytotoxicity than the 7C6-hIgG1-DANA mutant
NK cell mediated cytotoxicity against human tumor cells ([4]; human NK cells, antibody added at time of killing assay (10 μg/ml, 66.7 nM)): enabled strong NK cell mediated killing of human tumor cells; also recorded: exhibit cytotoxicity against A375 cells
CD80 expression by Kupffer cells [5]: higher surface levels of the CD80 activation marker; also recorded: increased expression of CD80 by Kupffer cells
number of lung metastases ([6]; NSG mice reconstituted with human NK cells, day 30): had fewer lung metastases; also recorded: reduces number of lung metastases in the presence of human NK cells
activity against liver metastases after macrophage depletion ([6]; clodronate liposomes, no NK cell reconstitution, 3 weeks): abrogated the therapeutic activity
number of organs with metastases (metastatic load) ([6]; day 30): reduced the number of organs with metastases; also recorded: significantly reduced metastatic load in the absence of transferred NK cells
survival ([6]; mice reconstituted with human NK cells): significant survival benefit; also recorded: increases the survival of mice
number of liver metastases ([6]; with or without NK cell transfer, day 30): substantially reduced the number of liver metastases even without NK cell transfer; also recorded: shows significant therapeutic activity against liver metastases even in the absence of NK cells
